Positions count from the first letter of the chain named. Blank lines part the entries; values can stand above or below the molecule they belong to.
Assays:
H69 = experiment: Flow cytometry binding to endogenous cell line H69; assay type: cell-based; set-up: key: (−): No binding; (+): Weak binding; (++): Moderate binding; (+++): Strong binding; details: primary antibody 1 ug/ml
Method: (§1) Staining for flow cytometry was performed in 1× cold PBS with 0.5% BSA. Primary antibodies (1 ug/ml) were incubated with live cells on ice for 30 minutes, after a brief wash, cells were incubated with Alexa Fluro® 488-conjugated anti-human IgG secondary antibody @1:1000 (709-546-149, Jackson ImmunoResearch). Acquisition of the data was performed on a MACSQuant® Flow Cytometers (Miltenyi Biotec) and analyzed with FlowJo software.

EOL-1 = experiment: Flow cytometry binding to endogenous cell line EOL-1; assay type: cell-based, human; set-up: key to binding to EOL-1 by flow cytometry: (−): No binding; (+): Weak binding; (++): Moderate binding; (+++): Strong binding; details: primary antibody 1 ug/ml
Method: as §1
(§2) Over 1,000 hits were identified that bind strongly to CHO-human IL1RAP, but not parental CHO cells. 68 clones were selected for molecular cloning. Based on unique CDR3 sequences from the heavy chain variable domain, 35 antibodies from 13 families were confirmed by binding in IL1RAP positive cell lines EOL1 and Karpas 299 (see Table 8) by flow cytometry (MACSQuant® www.miltenybiotec.com).

IL-1β signaling = experiment: IL-1 signaling reporter cell assay (HEK-Blue IL-1β cells), IL-1β; assay type: cell-based; details: HEK-Blue IL-1β cells, antibody 1-10 pg/ml, IL-1β 0.5 ng/ml
Method: (§3) HEK-Blue IL-1β cells (Invivogen, CA) were harvested and plated in technical duplicates at a density of 50,000 cells per well in a 96-well plate. IL1RAP antibodies, or a corresponding human IgG1 control antibody was added to the wells in a concentration range of […]. After incubating cells with antibodies for 30 minutes, IL-1β was added to a final concentration of 0.5 ng/ml, and the plate was incubated overnight. To examine whether any of the antibodies were able to induce IL-1R activation in the absence of IL-1β, samples were incubated with 10 μg/mL antibody without addition of the ligand. The following day, substrate was added to the supernatants, and samples were analyzed for absorbance at 620 nm.

recombinant human IL1RAP = molecular target: T1, recombinant human IL1RAP (Homo sapiens, UniProt Q9NPH3); experiment: Binding competition binning on Octet; details: Protein A biosensors
T1 construct: MBP-IL1RAP(S21-T367)-; 8xHis (C); made in house; host or cells: CHO (ExpiCHO transient expression)
Method: Binding Competition binning: Binding competition among different antibodies was determined using a real-time, interferometry assay on an Octet Red™ instrument with Protein A-conjugated biosensors. To assess whether two antibodies competed for binding to a recombinant IL1RAP protein, the assay was performed as follows. Protein A biosensors were first submerged into wells containing 10 ug/mL of individual monoclonal antibodies for 5 minutes. Following the capture step, the biosensors were dipped briefly (15 seconds) into buffer and then any unoccupied sites on the biosensor were saturated by submerging them for 5 minutes into wells containing 100 ug/mL of an irrelevant monoclonal antibody. The Octet™ biosensors were then dipped briefly (15 seconds) in buffer before immersion for 1 minute into wells containing recombinant IL1RAP. The biosensors were dipped briefly (15 seconds) in buffer before immersion for 1 minute into wells containing a second recombinant antibody.
For the control case where the second antibody was the same as the first, there was no increase in signal, because there was no additional binding to the recombinant target.
For the control case where buffer was used instead of the first antibody, no recombinant target bound the non-quenching antibody on the biosensor and no second antibody bound the biosensor.
Selected antibodies were evaluated in pairs for their ability to simultaneously bind recombinant human IL1RAP. The analysis was performed by Octet™ loaded with Protein A Biosensors. A total of five different bins were determined as follows.

Karpas 299 = experiment: Flow cytometry binding to endogenous cell line Karpas 299; assay type: cell-based, human; set-up: key to binding to Karpas 299 by flow cytometry: (−): No binding; (+): Weak binding; (++): Moderate binding; (+++): Strong binding; details: primary antibody 1 ug/ml
Method: as §1, §2

MOLT3 = experiment: Flow cytometry binding to endogenous cell line MOLT3; assay type: cell-based; set-up: key: (−): No binding; (+): Weak binding; (++): Moderate binding; (+++): Strong binding; details: primary antibody 1 ug/ml
Method: as §1

mouse IL1RAP = molecular target: T2, mouse IL1RAP (Mus musculus, UniProt Q61730); experiment: Flow cytometry binding to 293 cells expressing mouse IL1RAP; assay type: cell-based; details: 1 ug/ml
T2 construct: Met1-Val570; host or cells: HEK-293T
T2 sequence (Q61730 21-570): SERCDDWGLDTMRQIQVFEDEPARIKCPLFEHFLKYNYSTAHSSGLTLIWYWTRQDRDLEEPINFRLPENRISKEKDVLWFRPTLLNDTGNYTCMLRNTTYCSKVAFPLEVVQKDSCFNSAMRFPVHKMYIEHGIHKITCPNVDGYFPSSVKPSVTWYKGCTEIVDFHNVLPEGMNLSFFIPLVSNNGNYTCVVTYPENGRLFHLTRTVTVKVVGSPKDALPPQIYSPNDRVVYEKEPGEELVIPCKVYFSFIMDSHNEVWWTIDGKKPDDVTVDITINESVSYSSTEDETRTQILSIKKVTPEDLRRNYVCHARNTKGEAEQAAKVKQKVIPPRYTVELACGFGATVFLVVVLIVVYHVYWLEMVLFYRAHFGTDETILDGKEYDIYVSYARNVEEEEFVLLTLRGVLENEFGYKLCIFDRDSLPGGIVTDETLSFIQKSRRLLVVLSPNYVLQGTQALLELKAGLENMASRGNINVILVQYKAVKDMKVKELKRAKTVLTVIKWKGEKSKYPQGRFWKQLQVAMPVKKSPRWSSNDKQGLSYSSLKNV
Method: 293T cell line was purchased from American Type Culture Collection (ATCC). 293T cells expressing human, Macaca fascicularis, rat, and mouse IL1RAP were maintained in DMEM medium (Invitrogen) with 10% fetal bovine serum (FBS) (Sigma) in the presence of 2 ug/ml puromycin (Invitrogen).
as §1

IL-33 signaling = IL-33 signaling reporter cell assay (HEK-Blue IL-33 cells); assay type: cell-based; details: antibody 1-10 μg/ml, IL-33 0.5 ng/ml
Method: FIGS. 7A and 7B show blockage of IL-33 signaling by anti-IL1RAP antibodies. HEK-Blue IL-33 cells (Invivogen, CA) were harvested and plated in technical duplicates at a density of 50,000 cells per well in a 96-well plate. Antibodies, or a corresponding human IgG1 control antibody, was added to the wells in a serial dilution starting at 10 μg/ml (FIG. 7A), or a concentration of 1 and 10 μg/ml (FIG. 7B). After incubating cells with antibodies for 30 minutes, IL-33 was added to a final concentration of 0.5 ng/ml, and the plate was incubated overnight. 24 hours later, substrate was added to the supernatants, and samples were analyzed for absorbance at 620 nm. CBIgG1 (anti-hen egg lysozyme antibody, CrownBio™) was included as a negative control.
as §3, with “IL-33” for “IL-1β”, “plate.” for “plate. IL1RAP”, “ST2” for “IL-1R”, “IL-33,” for “IL-1β,”

- competition for binding, bin (2) (recombinant human IL1RAP): competed with each other
- competition for binding, bin (3) (recombinant human IL1RAP): competed with each other
B1: 5G8_18A1: human anti-IL1RAP antibody, VH SEQ ID NO: 1, VL SEQ ID NO: 5 (antibody, V domains shown)
VH: QVELQESGPGLVKPSDTLSLTCTVTGGSISTYYWSWIRQPPGKGLEWIGYIFYTGTTNYNPSLKSRVTISVDASKNQFSLKLNSVTAADTAVYYCARDGSLDYWGQGALVTVSS
VL: DIQMTQSPSSLSASVGDRVTITCRASQSISNYLNWYQQKPGKAPKLLIFVASLLQSGVPSRFSGSGSGTDFTLTISSLQPEDFATYYCQQSYSTPFTFGPGTKLEIK
- binding to H69 by flow cytometry (H69): (−)
- binding to EOL-1 by flow cytometry (EOL-1): (+++)
- inhibition of IL1R1 / IL-1 signaling (IL-1β signaling): potent inhibition

- competition for binding, bin (2) (recombinant human IL1RAP): competed with each other
B2: 16H2_17D2: human anti-IL1RAP antibody, VH SEQ ID NO: 25, VL SEQ ID NO: 29 (antibody, V domains shown)
VH: QVQLVESGGGVVQPGGSLRLSCAASGFTFSSHGMHWVRQAPGKGLEWVAVIWYDGSNKFYTDSVQGRFTISRDNSKNTLNLQMNSLRAEDTAVYYCAREGLRAGYYFDFWGQGTLVTVSS
VL: B1 VL with S28R, N31F, L33S, F49Y, V50A, L53S, Y87F, Y92H, F96L, P100G
- binding to EOL-1 by flow cytometry (EOL-1): (+++)
- inhibition of IL1R1 / IL-1 signaling (IL-1β signaling): potent inhibition

B3: 36A12_21C1: human anti-IL1RAP antibody, VH SEQ ID NO: 144, VL SEQ ID NO: 147 (antibody, V domains shown)
VH: EVQLVESGGGLVQPGGSLRLSCAASGFTLSFYWMTWVRQAPGKGLEWVANIKQDGNEKNYVDSVKGRFTISKDNAKKSVFLQMNSLRAEDTAVYYCAREGYFGSGYFDYWGQGTLVTVSS
VL: DIQMTQSPSTLSASVGDRVTITCRASQSINSWLAWYQQKPGKAPKLLIYKASTLESGVPSRFSGSGSGTEFTLTISSLQPDDFAPYYCQHYNSYPHTFGQGTKVEIK
- binding to Karpas 299 by flow cytometry (Karpas 299): (+++)
- binding to EOL-1 by flow cytometry (EOL-1): (+++)
- binding to MOLT3 by flow cytometry (MOLT3): (+)

B4: 33H2_21B1: human anti-IL1RAP antibody, VH SEQ ID NO: 140, VL SEQ ID NO: 143 (antibody, V domains shown)
VH: EVQVVESGGGLVQPGGSLRLSCATSGFTFRSYWMTWVRQAPGKGLEWVANIKQDGSERHYVDSVKGRFTISRDNAKTSLYLQMSSLRAEDTAMYYCAREGYYGSGYFDYWGQGTLVTVSS
VL: B3 VL with T20I, N30S, S31R, W32G, T53N, P85A, H90Q, N92S, S93Y, P95S
- binding to Karpas 299 by flow cytometry (Karpas 299): (+++)
- binding to EOL-1 by flow cytometry (EOL-1): (+++)
- binding to MOLT3 by flow cytometry (MOLT3): (+)

B5: 10C8_15A4: human anti-IL1RAP antibody, VH SEQ ID NO: 106, VL SEQ ID NO: 108 (antibody, V domains shown)
VH: EEQLLESGADLAQPGGSLRLSCAASGFTFSSYAMSWVRQAPGKGLEWVSTIRISGDTTYYADSVKGRFTISRDNSKNTLFLQMNSLRAEDTAVYYCVRDYYNGMDVWGHGTTVTVSS
VL: EIVLTQSPATLSLSPGERATLSCRASQRVSSYLAWYQQKPGQAPRLLIYDASNRATGIPARFSGSGSGTDFTLTISSLEPEDFAVYYCQQRSYWPPAFGQGTKLEIK
- binding to H69 by flow cytometry (H69): (−)
- binding to Karpas 299 by flow cytometry (Karpas 299): (+++)
- binding to EOL-1 by flow cytometry (EOL-1): (+++)

B6: 26C5_15B4: human anti-IL1RAP antibody, VH SEQ ID NO: 96, VL SEQ ID NO: 98 (antibody, V domains shown)
VH: EAQLLESGGGLVQPGGSLRLSCAASGFTFSSYAMSWVRQAPGKGLEWVSTISGSGGSTHYADSVKGRFTISRDNSKNTLYLQMNSLRAEDTAVYYCVRDYYYGMDVWGQGTTVTVSS
VL: B5 VL with R28S, A97T
- binding to H69 by flow cytometry (H69): (−)
- binding to Karpas 299 by flow cytometry (Karpas 299): (+++)
- binding to EOL-1 by flow cytometry (EOL-1): (+++)

B7: 16H2_17D1: human anti-IL1RAP antibody, VH SEQ ID NO: 83, VL SEQ ID NO: 87 (antibody, V domains shown)
VH: B5 VH with E2V, A12V, D56G, F80Y, H109Q
VL: B5 VL
- binding to H69 by flow cytometry (H69): (−)
- binding to Karpas 299 by flow cytometry (Karpas 299): (+++)
- binding to EOL-1 by flow cytometry (EOL-1): (+++)

- binding to 293 cells expressing mouse IL1RAP (mouse IL1RAP): bind weakly
- competition for binding, bin (1) (recombinant human IL1RAP): competed with each other
B8: 5D12_18A4: human anti-IL1RAP antibody, VH SEQ ID NO: 163, VL SEQ ID NO: 167 (antibody, V domains shown)
VH: QVQLQESGPGLVKPLGTLSLTCAVSGGSISNSNWWSWVRQPPGKGLEWIGEIYHSGSTNYNPSLKSRVTIALDWSKNQFSLQLRSVTAADTAVYYCARYGSGPFGGDCWGQGTLVTVSS
VL: DIQLTQSPSFLSASVGDRVTISCRASQGISSYLAWYQQKPGKAPKLLIYAASTLQGGVPSRFSGSGSGTTFTLTISSLQPEDFATYYCQQLNTYPFTFGPGTKLEIK
- binding to Karpas 299 by flow cytometry (Karpas 299): (++)
- binding to EOL-1 by flow cytometry (EOL-1): (+++)

- competition for binding, bin (3) (recombinant human IL1RAP): competed with each other
- competition for binding, bin (4) (recombinant human IL1RAP): competed with each other
B9: 36A10_21B6: human anti-IL1RAP antibody, VH SEQ ID NO: 48, VL SEQ ID NO: 52 (antibody, V domains shown)
VH: QGQVVESGGGVVQPGRSLRLSCAASGFTFSSYTLHWVRQAPGKGLEWVAVIWYDGSNKYYVDSVKGRFTISRDNSKNTLYLQMNSLRAEDTAVYYCAREYGSGSYYNVYYGMDVWGQGTTVTLSS
VL: DIVMTQSPLSLPVTPGEPASISCRSSQSLLHSNGYNYLDWYLQKPGQSPHLLIYLASNRASGVPDRFSGSGSGTDFTLKISRVEAEDVGFYYCMQTLQIPLTFGGGTKVEIK
- inhibition of IL-33 signaling (IL-33 signaling): partially inhibit
- binding to Karpas 299 by flow cytometry (Karpas 299): (++)
- binding to EOL-1 by flow cytometry (EOL-1): (+++)
- inhibition of IL1R1 / IL-1 signaling (IL-1β signaling): potent inhibition
- binding to MOLT3 by flow cytometry (MOLT3): (+)
